Data as given in paper PMC10574248.

Tested on: RBP7910 (Trypanosoma brucei)
Experiment: MST
Settings: RBB50: 20 mM HEPES pH 7.6, 150 mM KCl, 5 mM MgCl2, 100 ug/mL BSA, 10% glycerol, 50 nM oligo, room temperature 30-60 min, errors are 68% confidence

| Sequence | Kd [µM] |
| --- | --- |
| GGTGGGTTATCGCGCGCGCGCGATCAACTGGG (double strand) [d(GC)6 ds] | 0.444 |
| GGTGGGTTATCGCGCGCGCGCGATCAACTGGG [d(GC)6 ss] | 0.022 |
| GGUGGGUUAUAUUCAUUCAUUCAUCAACUGGG / CCCAGUUGAUGAAUGAAUGAAUAUAACCCACC [r(AUUC)3 ds] | 1.23 |
| GGUGGGUUAUAUUCAUUCAUUCAUCAACUGGG [r(AUUC)3 ss] | 0.272 |
| GGUGGGUUAUAUUUAUUUAUUUAUUUAUCAACUGGG / CCCAGUUGAUAAAUAAAUAAAUAAAUAUAACCCACC [r(AUUU)4 ds] | 1.88 |
| GGUGGGUUAUAUUUAUUUAUUUAUUUAUCAACUGGG [r(AUUU)4 ss] | 0.18 |
| GGUGGGUUAUCGCGCGCGCGCGAUCAACUGGG / CCCAGUUGAUCGCGCGCGCGCGAUAACCCACC [r(GC)6 ds] | 3.22 |
| GGUGGGUUAUCGCGCGCGCGCGAUCAACUGGG [r(GC)6 ss] | 2.03 |
| GGUGGGUUAUUAUAUAUAUAUAAUCAACUGGG / CCCAGUUGAUUAUAUAUAUAUAAUAACCCACC [r(UA)6 ds] | 1.34 |
| GGUGGGUUAUUAUAUAUAUAUAAUCAACUGGG [r(UA)6 ss] | 0.88 |
| GGUGGGUUAUUUUUUUUUUUUUAUCAACUGGG / CCCAGUUGAUAAAAAAAAAAAAAUAACCCACC [r(UUUU)3 ds] | 1.71 |
| GGUGGGUUAUUUUUUUUUUUUUAUCAACUGGG [r(UUUU)3 ss] | 0.147 |
